Results reported in patent US20080166364A1 (COVX TECHNOLOGY IRELAND, published 2008).
No end group written: not given here.

T1: human angiopoietin-2 protein (human, UniProt O15123 19-496)
T1 construct: bought; also called Ang-2; Ang2
T1 sequence (looked up): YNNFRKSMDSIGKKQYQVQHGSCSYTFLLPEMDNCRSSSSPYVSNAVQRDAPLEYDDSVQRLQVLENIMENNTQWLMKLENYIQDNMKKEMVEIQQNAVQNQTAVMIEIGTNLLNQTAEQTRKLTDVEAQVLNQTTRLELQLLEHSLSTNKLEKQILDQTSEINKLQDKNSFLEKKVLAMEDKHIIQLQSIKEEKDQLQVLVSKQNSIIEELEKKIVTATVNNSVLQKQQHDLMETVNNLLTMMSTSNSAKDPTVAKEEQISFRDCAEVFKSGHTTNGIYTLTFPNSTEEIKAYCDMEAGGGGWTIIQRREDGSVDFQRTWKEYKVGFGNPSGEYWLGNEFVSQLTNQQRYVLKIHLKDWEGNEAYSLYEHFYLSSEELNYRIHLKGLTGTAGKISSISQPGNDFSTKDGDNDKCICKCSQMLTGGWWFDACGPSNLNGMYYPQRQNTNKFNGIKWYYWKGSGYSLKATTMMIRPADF


Assays:
[1] = biological target: T1, human angiopoietin-2 protein; assay: reverse competitive ELISA, coated Tie-2-Fc, 0.83 nM Ang-2; peptide printed without linker, column headed P
Method: For reverse competition ELISA, human Tie-2-Fc, angiopoietin-2 protein, biotinylated anti-human Ang-2 antibody, and streptavidin HRP (R&D Systems) and TMB substrate from Pierce were used.
High-binding half-well plates were coated with Tie-2-Fc (50 ng/well) in 50 μl PBS and incubated at 4° C. overnight. Plates were washed three times with washing buffer (0.1% Tween 20, PBS, pH 7.4) and blocked with Superblock, 150 μl/well at RT for 1 hour. Plates were washed three times. Following washing, 50 μl of an Ang-2 binding peptide compound (50 nM, 5× serial dilution) in the presence of 50 ng/ml (0.83 nM) Ang-2 in Superblock were added and incubated at RT for 1 hour. Plates were washed 3 times, 50 μl of 1 μg/well biotinylated anti-Ang-2 detection antibody in Superblock was added and incubated at RT for 2 hours. Plates were washed 3 times, and 50 μl of streptavidin HRP (1:200 dilution in Superblock) was added at RT for 20 minutes. Plates were washed 3 times, and 50 μl (25 μl TMB+25 μl H₂O₂) substrate solution was added and incubated for 20-30 minutes. Color development was stopped with 25 μl of 2 M H₂SO₄. OD450 nm with a correction wavelength of 540 nm was measured.

[2] = biological target: T1, human angiopoietin-2 protein; assay: competitive ELISA, coated Ang-2, 0.25 nM hTie-2-Fc; peptide alone
Method: For competitive ELISA, human angiopoietin-2 protein and Tie-2-Fc (R&D Systems) were reconstituted without carrier protein. Mouse anti-human Tie-2 (Pharmingen) was used as the primary antibody and goat anti-mouse-IgG1-HRP (Pierce) was used as the secondary antibody. TMB substrate from Pierce was used.
High-binding half-well plates were coated with Ang-2 (100 ng/well) in 50 μl PBS and incubated at 4° C. overnight. Plates were washed three times with washing buffer (0.1% Tween 20, PBS, pH 7.4) and blocked with Superblock (Scytek), 100 μl/well at room temperature (“RT”) for 1 hour. After removing the blocking solution, 50 μl of an Ang-2 binding peptide compound (1 uM and 5× serial dilution) in the presence of 0.25 nM hTie-2-Fc using Superblock as diluent was added and incubated at RT for 2 hours. Plates were washed 3 times with washing buffer. Then, 50 ul of 0.1 ug/ml mouse anti-human Tie-2 diluted in Superblock added and incubated at RT for 1 hour. Following incubation, 50 ul of 1:5,000 dilution of goat anti-mouse IgG-HRP in Superblock was then added and incubated at RT for one hour. After washing 3 times, 50 μl (25 μl TMB+25 μl H₂O₂) was added, and incubated for 3-5 minutes. Color development was monitored and stopped with 25 μl of 2 M H₂SO₄. OD450 nm with a correction wavelength of 540 nm was measured.

Row | Binder | IC50 [1] [nM] | IC50 [2] [nM]
1 | QXYQPLDELDKTLYDQFMLQQG (not fully specified; N-term acyl cap; C-term NH2 cap; AcK at 2, not conjugated to linker or antibody) [Compound 22: Ang-2 binding peptide alone] | 14.4 | –
2 | QKYQPLDELDKTLYDQFMLQQG-NH2 (not fully specified (N-terminus); also: N-term acyl cap, acyl not given here, not conjugated to linker or antibody) [Compound 21: Ang-2 binding peptide alone] | 36.4 | 25.8
